Changes are numbered by the printed parent chain.
T1: HGFA (Val373-Ser655) (human, UniProt Q04756 373-655)
T1 construct: a tag is not described; also called human HGFA
T1 sequence: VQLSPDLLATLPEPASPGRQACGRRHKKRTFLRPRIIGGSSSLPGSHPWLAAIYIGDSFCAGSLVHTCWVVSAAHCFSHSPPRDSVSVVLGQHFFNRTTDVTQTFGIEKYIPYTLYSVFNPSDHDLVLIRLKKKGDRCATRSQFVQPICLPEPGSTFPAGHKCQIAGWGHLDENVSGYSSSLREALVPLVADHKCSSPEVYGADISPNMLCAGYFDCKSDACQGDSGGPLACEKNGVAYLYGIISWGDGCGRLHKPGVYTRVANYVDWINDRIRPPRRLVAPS

T2: factor XIIa (UniProt P00748 20-615, limits assumed)
T2 construct: also called FXIIa; coagulation factor XIIa
T2 sequence (looked up): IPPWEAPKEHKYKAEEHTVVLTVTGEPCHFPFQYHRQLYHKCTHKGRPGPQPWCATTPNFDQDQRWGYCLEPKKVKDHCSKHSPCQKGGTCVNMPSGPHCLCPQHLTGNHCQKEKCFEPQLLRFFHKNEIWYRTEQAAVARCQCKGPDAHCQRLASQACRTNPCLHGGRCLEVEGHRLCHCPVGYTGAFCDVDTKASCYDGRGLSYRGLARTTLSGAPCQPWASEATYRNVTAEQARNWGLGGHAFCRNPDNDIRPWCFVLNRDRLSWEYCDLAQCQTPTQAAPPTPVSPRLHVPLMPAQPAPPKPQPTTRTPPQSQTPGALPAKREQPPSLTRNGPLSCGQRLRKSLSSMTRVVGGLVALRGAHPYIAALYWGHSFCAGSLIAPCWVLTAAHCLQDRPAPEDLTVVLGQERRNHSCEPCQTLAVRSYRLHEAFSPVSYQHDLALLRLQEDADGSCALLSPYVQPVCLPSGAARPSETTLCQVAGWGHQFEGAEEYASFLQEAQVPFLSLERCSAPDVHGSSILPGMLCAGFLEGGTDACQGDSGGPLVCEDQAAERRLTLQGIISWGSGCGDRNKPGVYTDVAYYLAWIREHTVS

T3: matriptase (UniProt Q9Y5Y6 615-855, limits assumed)
T3 sequence (looked up): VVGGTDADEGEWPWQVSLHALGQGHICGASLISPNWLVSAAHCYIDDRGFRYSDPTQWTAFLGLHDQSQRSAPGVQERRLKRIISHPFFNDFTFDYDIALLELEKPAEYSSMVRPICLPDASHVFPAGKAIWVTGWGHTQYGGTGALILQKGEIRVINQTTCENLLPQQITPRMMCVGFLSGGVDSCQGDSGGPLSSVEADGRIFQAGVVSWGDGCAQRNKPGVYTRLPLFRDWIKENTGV

B1: Ab39 (antibody, V domains shown)
VH: EVQLVESGGGLVQPGGSLRLSCAASGFTFNGTYIHWVRQAPGKGLEWVGGIYPAGGATYYADSVKGRFTISRDNSKNTLYLQMNSLRAEDTAVYYCAKWWAWPAFDYWGQGTLVTVSS
VL: DIQMTQSPSSLSASVGDRVTITCRASQDVSTAVAWYQQKPGKAPKLLIYSASFLYSGVPSRFSGSGSGTDFTLTISSLQPEDFATYYCQQSYTTPPTFGQGTKVEIKR
notes: also called parental Ab39; anti-HGFA antibody Ab39
B2: Ab40 (antibody, V domains shown)
VH: B1 VH
VL: B1 VL with Y92N, T93R, T94A, P96A
notes: also called anti-HGFA antibody Ab40
B3: Ab40.ΔTrp (antibody, V domains shown)
VH: EVQLVESGGGLVQPGGSLRLSCAASGFTFNGTYIHWVRQAPGKGLEWVGGIYPAGGATYYADSVKGRFTISRDNSKNTLYLQMNSLRAEDTAVYYCAKWAWPAFDYWGQGTLVTVSS
VL: B1 VL with Y92N, T93R, T94A, P96A
notes: also called Trp96H-deletion mutant of Ab40

Columns and labels:
[1] = target: urokinase-type plasminogen activator (UniProt P00749 21-431, limits assumed); experiment: direct binding ELISA on coated urokinase, anti-human antibody HRP conjugate, OD 450 nm
Description: (§1) FIG. 9: (a) Antibody specificity. In a direct binding ELISA, 96-well plates were coated with […] of HGFA, matriptase (Kirchhofer et al. (2003) J Biol Chem 278:36341-36349), urokinase (American Diagnostica), or factor XIIa (American Diagnostica) and incubated with […] of anti-HGFA antibodies in PBS, 0.05% (v/v) Tween-20 (PBT) buffer. After washing, bound antibodies were detected by addition of anti-human antibody HRP conjugate (diluted 1:2,500 in PBT buffer) and TMB substrate. Absorbance at 450 nm was measured on a microplate reader.
(§2) Competition HGFA binding ELISA experiments: For binding specificity measurements, 96-well Maxisorp plates were coated with 2 μg/ml of HGFA, matriptase, urokinase-type plasminogen activator or factor XIIa and incubated with 10 μg/ml of anti-HGFA IgG in PBST buffer for at least 1 hour at room temperature. The plates were washed with PBT buffer and bound antibodies were detected with anti-human antibody HRP conjugate diluted 1:2500 in PBST buffer, developed with TMB substrate for approximately 5 minutes, quenched with 1 M H₃PO₄, and absorbance was measured on a microplate reader at 450 nm.

HGFA (Val373-Ser655) [2] = target: T1, HGFA (Val373-Ser655); experiment: SPR (BIAcore 3000), IgG captured on anti-human IgG, HGFA injected, 25 C
Description: (§3) Antibody reformatting and determination of dissociation rate constants to HGFA: Anti-HGFA Fabs were reformatted into human IgG1 by cloning the VL and VH regions of individual clones into LPG3 and LPG4 vector, respectively (Liang et al, 2007). The full-length antibodies were transiently expressed in Chinese Hamster Ovary cells and purified on a protein-A column. To determine binding affinities of the reformatted anti-HGFA antibodies, surface plasmon resonance measurements on a BIAcore™-3000 instrument (GE Health Care, NJ) were performed. Rabbit anti-human IgG were chemically immobilized (amine coupling) on CM5 biosensor chips and the anti-HGFA antibodies were captured to give approximately 250 response units (RU). For kinetics measurements, two-fold serial dilutions of HGFA or active site-blocked HGFA (0.9 nM to 250 nM) were injected in PBT buffer at 25° C. with a flow rate of 30 μl/min. HGFA-KQLR (“KQLR” disclosed as SEQ ID NO: 10) was produced by incubating HGFA with two fold molar excess of Ac-KQLR-cmk (“KQLR” disclosed as SEQ ID NO: 10) for 2 hours at room temperature, followed by size exclusion chromatography to remove non-incorporated Ac-KQLR-cmk (“KQLR” disclosed as SEQ ID NO: 10). Association rates (kₒₙ) and dissociation rates (koff) were obtained by using a simple one-to-one Langmuir binding model (BIAEvaluation) and the equilibrium dissociation constants (KD) were calculated (koff/kₒₙ). Longer injection (5 min) of 2-fold serial dilution of HGFA or HGFA-KQLR (“KQLR” disclosed as SEQ ID NO: 10) (1.5 nM to 3000 nM) over captured antibody (Ab40.ΔTrp) sensor chip was implemented to achieve maximal binding (Rₘₐₓ) and reach the steady state.

factor XIIa = target: T2, factor XIIa; experiment: direct binding ELISA on coated factor XIIa, anti-human antibody HRP conjugate, OD 450 nm
Description: as §1, §2

matriptase = target: T3, matriptase; experiment: direct binding ELISA on coated matriptase, anti-human antibody HRP conjugate, OD 450 nm
Description: as §1, §2

HGFA (Val373-Ser655) [3] = target: T1, HGFA (Val373-Ser655); experiment: competition ELISA: coated HGFA incubated with increasing Ab40, then 1 nM biotinylated KD1, detected with streptavidin-HRP; blocked ligand KD1; inhibition partial
Description: FIG. 3: Effects of active site inhibitors on antibody binding to HGFA. (a-b, e-f) Surface plasmon resonance (BIAcore) measurements of binding to immobilized antibodies, Ab40 (a-b) or Ab40.ΔTrp (e-f), after co-injection of HGFA (a,e) or HGFA-KQLR (b, f) complex (“KQLR” disclosed as SEQ ID NO: 10). (c) Competition binding (BIAcore) of HGFA to immobilized Ab40 in presence of different concentrations of KD1. (d) Competition binding ELISA measuring binding of HGFA to biotinylated KD1 in the presence of increasing antibody concentrations.
HGFA purification, enzymatic kinetic assays and competition ELISA: HGFA (Val373-Ser655) was produced by use of a baculovirus—insect cell expression system and purified on a Ni-NTA-agarose column, followed by size exclusion chromatography as described (Kirchhofer et al, 2003). […] After addition of S-2266 (0.24 mM˜Kₘ) the linear rates of the increase in absorbance at 405 nm were measured on a kinetic microplate reader (Spectramax-M5, Molecular devices, Sunnyvale, Calif.). […] Various concentrations of Chromogenix S-2266 were added and the linear rates of absorbance increase at 405 nm were measured. […] Biotinylated KD1 that was bound to HGFA was detected by streptavidin-HRP conjugates.

HGFA (Val373-Ser655) [4] = target: T1, HGFA (Val373-Ser655); experiment: SPR
Description: (§4) Antibody reformatting and determination of dissociation rate constants to HGFA: Anti-HGFA Fabs were reformatted into human IgG1 by cloning the VL and VH regions of individual clones into LPG3 and LPG4 vector, respectively (Liang et al, 2007). The full-length antibodies were transiently expressed in Chinese Hamster Ovary cells and purified on a protein-A column. To determine binding affinities of the reformatted anti-HGFA antibodies, surface plasmon resonance measurements on a BIAcore™-3000 instrument (GE Health Care, NJ) were performed. Rabbit anti-human IgG were chemically immobilized (amine coupling) on CM5 biosensor chips and the anti-HGFA antibodies were captured to give approximately 250 response units (RU). For kinetics measurements, two-fold serial dilutions of HGFA or active site-blocked HGFA (0.9 nM to 250 nM) were injected in PBT buffer at 25° C. with a flow rate of 30 μl/min. […] Association rates (kₒₙ) and dissociation rates (koff) were obtained by using a simple one-to-one Langmuir binding model (BIAEvaluation) and the equilibrium dissociation constants (KD) were calculated (koff/kₒₙ). […]

HGFA-KQLR complex [5] = target: T4, HGFA-KQLR complex (human, UniProt Q04756 373-655, N-terminal acetyl; C-terminal chloromethyl ketone, reacted with Ser195 and His57 of HGFA; active-site Ser195 and His57 (chymotrypsinogen numbering) covalently linked to Ac-KQLR-cmk); experiment: SPR
Description: as §4

HGFA-KQLR complex [6] = target: T4, HGFA-KQLR complex; experiment: SPR (BIAcore 3000), IgG captured on anti-human IgG, HGFA-KQLR complex injected, 25 C
Description: as §3

HGFA-KQLR complex [7] = target: T4, HGFA-KQLR complex; experiment: SPR (BIAcore 3000), steady state affinity, IgG captured, HGFA-KQLR complex injected
Description: as §4

HGFA (Val373-Ser655) [8] = target: T1, HGFA (Val373-Ser655); experiment: SPR (BIAcore 3000), steady state affinity, IgG captured, HGFA injected
Description: as §4

Binder	binding result [1]	Kd (HGFA (Val373-Ser655) [2]) [nM]	koff (HGFA (Val373-Ser655) [2]) [s⁻¹]	kon (HGFA (Val373-Ser655) [2]) [M⁻¹ s⁻¹]	binding result (factor XIIa)	binding result (matriptase)	IC50 (read off the curve) (HGFA (Val373-Ser655) [3]) [nM]	fold improvement in binding affinity over Ab39 (HGFA (Val373-Ser655) [4]) [fold]	fold decrease in affinity compared to HGFA (HGFA-KQLR complex [5]) [fold]	Kd (HGFA-KQLR complex [6]) [nM]	koff (HGFA-KQLR complex [6]) [s⁻¹]	kon (HGFA-KQLR complex [6]) [M⁻¹ s⁻¹]	Kd (HGFA-KQLR complex [7]) [nM]	Kd (HGFA (Val373-Ser655) [8]) [nM]
B1	no binding	10.3	0.0053	520000	no binding	no binding	–	–	–	–	–	–	–	–
B2	no binding	0.16	0.000175	1.08e+06	no binding	no binding	~1	64	8	1.35	0.00043	320000	–	–
B3	–	–	–	–	–	–	–	–	–	–	–	–	161	150
